Laboratory results from paper doi:10.1101/2023.05.10.540161 (bioRxiv, 2023).

Target: the molecule itself
Assay: crystal structure; His6-CENP-E 2452-2598 at 11 mg/ml, crystallized in 0.2 M potassium citrate tribasic monohydrate, 20% w/v PEG 3350 pH 8.3, room temperature; a CENP-E dimer in the asymmetric unit

B1: His6-CENP-E_(2452-2598) (domain or fragment, human, UniProt Q02224-1 2452-2598, looked up)
chain: PYKEEIEDLKMKLVKIDLEKMKNAKEFEKEISATKATVEYQKEVIRLLRENLRRSQQAQDTSVISEHTDPQPSNKPLTCGGGSGIVQNTKALILKSEHIRLEKEISKLKQQNEQLIKQKNELLSNNQHLSNEVKTWKERTLKREAHK
notes: CENP-E (kinesin-7), human, residues 2452-2598, from CENP-E transcript variant 1 (NM_001813.2); in the crystal only K2454 to S2506 were seen (likely C-terminal degradation during crystallization); Cloned into pET3aTr; also called minimal corona targeting domain; corona-targeting domain of CENP-E; source: E. coli BL21, purified as previously described (Legal et al., 2020)
  stoichiometry N: 2
